What is called Kd is a measure of binding affinity in units of concentration.

In this data set the test system is TRMT10C (native, untagged, in complex);SDR5C1 (Homo sapiens;Homo sapiens). As to the kind of experiment: EMSA. To be noted: concentration refers to TRMT10C content; EMSA: 1 nM 5'-labelled pre-tRNA, 10 nM-1.2 uM protein, methylation/processing buffer (composition not in material) + 100 mM sucrose, 30 min at room ….

As for (mt)pre-tRNAHis, the Kd is 0.143 µM.
The result for (mt)pre-tRNAIle reads 0.088 µM.

The values are drawn from article PMC3526285.
